{"source": "paper PMC12666128", "about": "“Engineering ω-transaminase for efficient dihydroxyacetone transamination in serinol biosynthesis starting from methanol” (Synthetic and Systems Biotechnology, 2025)", "substrate": "O=C(CO)CO", "assay_type": "biochemical, Chromobacterium violaceum", "conditions": "DHA as varied substrate; PLP-dependent"}
{"protein": "Cv-ωTA (Chromobacterium violaceum ATCC 12472) (protein) MQKQRTTSQWRELDAAHHLHPFTDTASLNQAGARVMTRGEGVYLWDSEGNKIIDGMAGLWCVNVGYGRKDFAEAARRQMEELPFYNTFFKTTHPAVVELSSLLAEVTPAGFDRVFYTNSGSESVDTMIRMVRRYWDVQGKPEKKTLIGRWNGYHGSTIGGASLGGMKYMHEQGDLPIPGMAHIEQPWWYKHGKDMTPDEFGVVAARWLEEKILEIGADKVAAFVGEPIQGAGGVIVPPATYWPEIERICRKYDVLLVADEVICGFGRTGEWFGHQHFGFQPDLFTAAKGLSSGYLPIGAVFVGKRVAEGLIAGGDFNHGFTYSGHPVCAAVAHANVAALRDEGIVQRVKDDIGPYMQKRWRETFSRFEHVDDVRGVGMVQAFTLVKNKAKRELFPDFGEIGTLCRDIFFRNNLIMRACGDHIVSAPPLVMTRAEVDEMLAVAERCLEEFEQTLKARGLA", "values": [{"measurement": "Km", "result": "15.2 ± 0.11", "unit": "mM"}, {"measurement": "kcat", "result": "1.61 ± 0.07", "unit": "s⁻¹"}, {"measurement": "kcat/Km", "result": 100, "unit": "M⁻¹ s⁻¹"}]}
